Assay results: the supplement of paper PMC10724198
± gives the standard deviation of the averaged measurements.

These sequences were tested on Saccharomyces cerevisiae (assay: protein stability index of tFT-peptide fusion (C-terminal peptide) (PSI (0-1 scale)); higher = more stable (slower turnover)). Settings: genetic background: wild type; temperature: 30 C.
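Note: PSI is a weighted mean of sequencing reads over stability bins, variants kept only with over 10 reads, mCherry proximal and sfGFP distal, peptide attached via GGGS linker.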

Sequence	protein stability index
VVGWGWGGVVRR	0.763 ± 0.02
VVIGCRRVLGCV	0.583 ± 0.03
VVLFFGPRWSLG	0.624 ± 0.068
VVLSASAALFTF	0.578 ± 0.029
VVLWGAVSIVRT	0.616 ± 0.028
VVPDSGESSASG	0.654 ± 0.098
VVVARGGEEGWW	0.656 ± 0.12
VVVLCGGSGGVG	0.652 ± 0.059
VVVSGGGAGFWL	0.728 ± 0.019
VVWGGWGGWGCW	0.81 ± 0.17
VVYWGFVLGFGA	0.582 ± 0.055
VWGERPRFGGWG	0.691 ± 0.038
VWGGGRGGGGKG	0.619 ± 0.031
VWGGNGRAASQL	0.742 ± 0.019
VWGLGWEFWWGV	0.7157 ± 0.0021
VWIGMSLSSLVM	0.512 ± 0.011
VWLSRLVFLSPL	0.602 ± 0.0046
VWRGCRVGGQGM	0.687 ± 0.042
VWRGPVVAAGWG	0.659 ± 0.018
VWRSERCRRGGV	0.699 ± 0.15
VWSGGDGGGAVV	0.733 ± 0.051
VWSILSCRTRLL	0.503 ± 0.02
VWSPGGGAFVGG	0.815 ± 0.047
VWTPWSTKDCLG	0.721 ± 0.054

Sequence	protein stability index
VYDASLPIRFFL	0.697 ± 0.013
VYFLDPSSPPWF	0.752 ± 0.011
VYRGSQKQRAQG	0.685 ± 0.024
VYRIAEENRRWV	0.738 ± 0.12
VYRMYTLKRVKR	0.686 ± 0.062
WAGQWCRGRAGG	0.728 ± 0.056
WAIYPDVESVIP	0.773 ± 0.0081
WALLAAGGGGRG	0.651 ± 0.074
WARLHLSGRYSL	0.747 ± 0.02
WAVGRGLVLSST	0.684 ± 0.042
WCECGVWGGLWG	0.719 ± 0.021
WCGKVVVGSRQG	0.68 ± 0.032
WCLVTRGGDRDL	0.6727 ± 0.0047
WCRHREYFYGSN	0.657 ± 0.032
WCSVGVSGFVIR	0.725 ± 0.0075
WDGWPTRSGGTG	0.738 ± 0.023
WDSPVMCVTIID	0.628 ± 0.0094
WDYQGIIFVAGG	0.687 ± 0.0075
WEQQTSLPLLSL	0.712 ± 0.021
WFAGRDRHRAND	0.745 ± 0.1
WFCDNHRSFGWG	0.747 ± 0.07
WFFPPLPPPLPR	0.686 ± 0.04
WFLCCFGGVSLV	0.619 ± 0.0064
WFLFIPLACLRP	0.592 ± 0.0079

Sequence	protein stability index
WFLVQQCGQMDR	0.711 ± 0.022
WFNRRISPISGI	0.676 ± 0.059
WFSRVSSASRRS	0.7073 ± 0.00084
WGACSALRRLGY	0.684 ± 0.044
WGAGGGGWGGGV	0.685 ± 0.024
WGEGCGSSEEGE	0.695 ± 0.087
WGFVCWGCGGCS	0.746 ± 0.028
WGGEVGQLLELW	0.714 ± 0.048
WGGGCGRRIGCR	0.7193 ± 0.007
WGGGGGGSGACL	0.6974 ± 0.0069
WGGGPGLRVVGG	0.731 ± 0.026
WGGGRGTAVVGV	0.657 ± 0.028
WGGRSVGGVVWR	0.714 ± 0.036
WGLCIGTGWALG	0.708 ± 0.0092
WGLGLYEENTGC	0.7468 ± 0.003
WGRCGSVGRGGA	0.749 ± 0.024
WGRGHPIYVCRV	0.689 ± 0.013
WGRRCRFIFRGM	0.654 ± 0.074
WGSSGCLFGTVG	0.769 ± 0.12
WGSSGWVGEGGG	0.657 ± 0.044
WGTGGRRGVGHV	0.709 ± 0.066
WGVGWSGRVGGS	0.647 ± 0.045
WGWGVASRCCEG	0.72 ± 0.042
WGYWGGVMGLEE	0.738 ± 0.043

Sequence	protein stability index
WHDLDRGSFRAV	0.669 ± 0.023
WITAYFPLHSSE	0.714 ± 0.036
WLCGSIGHAMLG	0.739 ± 0.062
WLFDFECRCILG	0.65 ± 0.11
WLFDRLPFNAEN	0.715 ± 0.046
WLFRGELCGGAN	0.588 ± 0.014
WLGAYVRAWSVA	0.533 ± 0.0011
WLGGGGGMQGVR	0.669 ± 0.057
WLRTGNVLQELL	0.699 ± 0.03
WLVCGRSFVFTL	0.549 ± 0.058
WLVFRISLLRFD	0.541 ± 0.026
WLVRHLGFVPWI	0.7 ± 0.028
WLWLGFNRVFFY	0.511 ± 0.033
WMAFRRIPTWSG	0.679 ± 0.073
WMSLLEFGSLCG	0.748 ± 0.15
WPGYLTNVLPVI	0.65 ± 0.029
WPSTLHRGLSLP	0.702 ± 0.074
WRCAGVGGVGGG	0.708 ± 0.012
WRGIFPSRFCLS	0.62 ± 0.039
WRGRWVWGVGEV	0.628 ± 0.069
WRLAGRRGIQCD	0.7 ± 0.017
WRLCWWVVESGG	0.639 ± 0.02
WRPPPPYSPFSL	0.74 ± 0.066
WRRLVGGVAWLW	0.726 ± 0.08

Sequence	protein stability index
WRVVTPPSVDHR	0.677 ± 0.015
WSAPHPVCSPPS	0.697 ± 0.0093
WSGERCFLGFYR	0.771 ± 0.087
WSPVPVPPPLPT	0.722 ± 0.083
WSSCISCLLRGV	0.688 ± 0.066
WSSSRPASGSSA	0.708 ± 0.016
WSSVLGYFSRKE	0.702 ± 0.024
WTAITDRRSRPD	0.616 ± 0.063
WTDHISEHLHTV	0.742 ± 0.039
WTFEYRNHKMKK	0.7149 ± 0.0071
WVAFTRGGCGHC	0.66 ± 0.017
WVCARQVGIGWG	0.6657 ± 0.0019
WVCCVGAGFLVV	0.594 ± 0.03
WVCRGSSLKSSI	0.677 ± 0.058
WVFRHSTMNNEN	0.672 ± 0.094
WVGEVSMGVRAG	0.666 ± 0.014
WVGLGMSLRRAA	0.564 ± 0.062
WVSMDFTGLVNG	0.628 ± 0.015
WVTKGLYIMSTK	0.663 ± 0.11
WVVGCVRGVWGA	0.712 ± 0.051
WWEGSFRGGAVR	0.592 ± 0.094
WYSSSRDLSVSG	0.731 ± 0.0076
YASKNPSVVIFG	0.68 ± 0.018
YATLGPDRALVR	0.655 ± 0.0095

Sequence	protein stability index
YAVGWLLGGLWD	0.765 ± 0.053
YCGCLGYATGRV	0.671 ± 0.017
YCGLQSWLGVGG	0.677 ± 0.0076
YCMRPLCLEMFR	0.682 ± 0.016
YCPLSRTQSSAR	0.859 ± 0.18
YCPVFSLPPFFR	0.664 ± 0.086
YCRSFSGPFFDI	0.745 ± 0.094
YCTMHLQLLQHS	0.578 ± 0.012
YDLLLYGGATSP	0.757 ± 0.084
YDRFVNGKSPGM	0.701 ± 0.06
YDSGNWPGFRCQ	0.73 ± 0.055
YDVLGLFPICKW	0.729 ± 0.06
YEHPRLRNGSIM	0.8 ± 0.24
YFCCFIPFFFDC	0.663 ± 0.069
YFETNINKYLRM	0.7107 ± 0.00072
YFFECFKECREQ	0.749 ± 0.015
YGGCGFEEEGVR	0.73 ± 0.02
YGGSLLNVFGLG	0.645 ± 0.0078
YGIGVRMPRSYW	0.709 ± 0.035
YGPRNRNPPNAG	0.688 ± 0.099
YHPPLDHHQCTE	0.648 ± 0.063
YHPPLTIQSLGH	0.694 ± 0.029
YIGLPVSALTIF	0.574 ± 0.1
YILSSFPSCLVL	0.64 ± 0.034

Sequence	protein stability index
YINRKKKKINKT	0.675 ± 0.066
YKGGDEVKTKKK	0.656 ± 0.035
YKRRYTKNQIRK	0.666 ± 0.054
YKSKQKAQQKAK	0.64 ± 0.13
YLFSLSSSLFIL	0.56 ± 0.0085
YLPLPPLTPPPR	0.776 ± 0.036
YLPSTAHSAHPP	0.737 ± 0.045
YLQPSGSRPGAK	0.715 ± 0.014
YLRSMIPKELAV	0.605 ± 0.023
YMIPVPFSNLCL	0.66 ± 0.011
YMSHPHGPLCLS	0.75 ± 0.21
YPAVNLVPPPDV	0.675 ± 0.013
YPGPFTGCSKIQ	0.676 ± 0.069
YPGVSRCGTRWV	0.643 ± 0.046
YPHAGSTSLLLF	0.685 ± 0.0073
YPLRVSRCWSPP	0.773 ± 0.1
YPPGSPVPPGLP	0.671 ± 0.0076
YPRGFPTLSYSS	0.727 ± 0.023
YPRPIPSISRTS	0.731 ± 0.053
YQAVRGRVFVAL	0.638 ± 0.044
YQFGFLPAFPAC	0.7 ± 0.013
YRARRRPPPSPP	0.682 ± 0.045
YREPKISEMLQE	0.621 ± 0.017
YRIWFSSFLHPT	0.741 ± 0.18

Sequence	protein stability index
YRPPFPAALFSE	0.6962 ± 0.0034
YRRASGGTVEDM	0.721 ± 0.024
YRSPPPLRGLIP	0.711 ± 0.088
YRTCLHRGRQML	0.68188 ± 0.00019
YRTPCPPLSPHS	0.719 ± 0.062
YRVFTANYEYEQ	0.724 ± 0.023
YSGFVVGASDTL	0.601 ± 0.18
YSHSRVNPDAWG	0.669 ± 0.11
YSRGVSGSDKFP	0.747 ± 0.16
YSVSAALPREFR	0.773 ± 0.062
YTLPVHPAFVFP	0.683 ± 0.071
YTPDFPTIVSFI	0.694 ± 0.14
YTSTSTILRPFP	0.676 ± 0.078
YVAGECVFVCWE	0.657 ± 0.04
YVARERWEGCRI	0.7 ± 0.0077
YVGAENRGVQGW	0.723 ± 0.016
YVKHTVKVSGHK	0.665 ± 0.0098
YVRCSVKCHILT	0.609 ± 0.029
YWFVFGEFSGGR	0.716 ± 0.042
YWPPIRSILPQY	0.67 ± 0.033
YYAGFTAFGSLA	0.709 ± 0.079
YYVGLHSFSILQ	0.729 ± 0.076
